# Residue numbers refer to the chain shown, from its start. In names and notes the source's numbering stands.
# T1: human interleukin 13 receptor alpha 2 (IL-13Rα2), biotinylated (human, UniProt Q14627 27-343, limits assumed, biotinylated (site not stated))
# T1 construct: The methods give construct limits only for IL-13Rα1 and IL-4Rα1; For IL-13Rα2 they say only that the biotinylated receptor was captured on the SA chip; also called IL13RA2; CD213a2
# T1 sequence (looked up): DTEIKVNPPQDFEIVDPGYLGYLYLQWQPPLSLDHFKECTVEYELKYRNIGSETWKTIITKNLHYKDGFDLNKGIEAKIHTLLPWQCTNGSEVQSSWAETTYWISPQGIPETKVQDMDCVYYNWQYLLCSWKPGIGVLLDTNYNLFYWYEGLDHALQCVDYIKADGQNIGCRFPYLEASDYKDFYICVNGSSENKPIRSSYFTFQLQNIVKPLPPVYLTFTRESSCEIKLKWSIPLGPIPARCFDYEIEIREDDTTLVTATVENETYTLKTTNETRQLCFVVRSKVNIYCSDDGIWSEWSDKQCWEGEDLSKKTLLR
# B1: IL-13 variant B4 (R11S, V18I, R86K, D87G, T88S, K89M, L101Y, K104R, K105T) (ligand)
# chain: PGPVPPSTALSELIEELINITQNQKAPLCNGSMVWSINPTAGMYCAALESLINVSGCSAIEKTQRMLSGFCPHKVAAGQFSSLHDKGSMIEVAQFVKDLLYHLRTLFREGQFNHHHHHH
# notes: also called polypeptide B4
# B2: IL-13 variant C4 (L10V, K89R, L101N, K105E, R108T) (ligand)
# chain: PGPVPPSTAVRELIEELVNITQNQKAPLCNGSMVWSINLTAGMYCAALESLINVSGCSAIEKTQRMLSGFCPHKVSAGQFSSLHVRDTRIEVAQFVKDLLNHLKELFTEGQFNHHHHHH
# notes: the first is used here; also called polypeptide C4
# B3: IL-13 variant D7 (IL-13Rα2-selective IL-13 superkine; L10A, V18F, R86K, D87K, K89R, L101I, K104R, R108K) (ligand)
# chain: B2 chain with V10A, V18F, Q64K, S81P, R86K, D87K, N101I, K104R, E105K, T108K
# notes: the first is used here; also called polypeptide D7
# B4: IL-13 variant C11 (IL-13Rα2-selective IL-13 superkine; L10H, R86T, D87G, T88R, R108K) (ligand)
# chain: B2 chain with V10H, R86T, D87G, T88R, R89K, N101L, E105K, T108K
# notes: the first is used here; Made in insect Hi5 cells; also called polypeptide C11
# B5: A7 (ligand)
# cytokine: PGPVPPSTAIRELIEELINITQNQKAPLCNGSMVWSINLTAGMYCAALESLINVSGCSAIEKTQRMLSGFCPHKVSAGQFSSLHVRGSKIEVAQFVKDLLHHLRALFREGQFN
# notes: also called IL-13 variant A7 (L10I, V18I, D87G, T88S, L101H, K104R, K105A)
# B6: C7 (ligand)
# cytokine: B5 cytokine with I10L, R11S, I14M, I18V, G87D, H101N, R104K, R108K
# notes: also called IL-13 variant C7 (R11S, I14M, T88S, L101N, K105A, R108K)
# B7: B2 (ligand)
# cytokine: B5 cytokine with I10L, R86T, H101Y
# notes: also called IL-13 variant B2 (V18I, R86T, D87G, T88S, L101Y, K104R, K105A)
# B8: A11 (ligand)
# cytokine: B5 cytokine with I10V, G87S, H101F, A105T
# notes: also called IL-13 variant A11 (L10V, V18I, D87S, T88S, L101F, K104R, K105T)
# B9: A6 (ligand)
# cytokine: B5 cytokine with I18L, R86M, G87K
# notes: also called IL-13 variant A6 (L10I, V18L, R86M, D87K, T88S, L101H, K104R, K105A)
# B10: A8 (ligand)
# cytokine: B5 cytokine with G87S, K89R, A105T
# notes: also called IL-13 variant A8 (L10I, V18I, D87S, T88S, K89R, L101H, K104R, K105T)
# B11: C10 (ligand)
# cytokine: B5 cytokine with I10H, R11L, R86M, G87D, S88T, K89R, H101L, R104K, A105K, R108K
# notes: also called IL-13 variant C10 (L10H, R11L, V18I, R86M, K89R, R108K)
# B12: A5 (ligand)
# cytokine: B5 cytokine with I10L, R11I, R86K, F107M
# notes: also called IL-13 variant A5 (R11I, V18I, R86K, D87G, T88S, L101H, K104R, K105A, F107M)
# B13: C3 (ligand)
# cytokine: B5 cytokine with I10A, I18V, R86T, S88K, K89R, H101N, R108K
# notes: also called IL-13 variant C3 (L10A, R86T, D87G, T88K, K89R, L101N, K104R, K105A, R108K)
# B14: C9 (ligand)
# cytokine: B5 cytokine with I10H, R11L, R86K, G87E, S88T, K89R, H101N, R104K, A105T, R108K
# notes: also called IL-13 variant C9 (L10H, R11L, V18I, R86K, D87E, K89R, L101N, K105T, R108K)
# B15: IL-13dn (ligand)
# cytokine: B5 cytokine with I10V, E12A, R65D, G87S, H101F, A105T
# notes: also called IL13dn (L10V, E12A, V18I, R65D, D87S, T88S, L101F, K104R, K105T)
# B16: B6 (ligand)
# cytokine: B5 cytokine with I10T, H101Y, A105T
# notes: the sheet prints K at position 89 (same as wild type); also called IL-13 variant B6 (L10T, V18I, D87G, T88S, L101Y, K104R, K105T)
# B17: C12 (ligand)
# cytokine: B5 cytokine with I10H, I18V, R86M, G87D, K89R, H101N, R108K
# notes: also called IL-13 variant C12 (L10H, R86M, T88S, K89R, L101N, K104R, K105A, R108K)
# B18: C2 (ligand)
# cytokine: B5 cytokine with I10D, R11I, R86K, G87K, S88T, K89R, H101L, R104K, A105K, R108K
# notes: also called IL-13 variant C2 (L10D, R11I, V18I, R86K, D87K, K89R, R108K)
# Tests used:
# [1] = target: human interleukin 13 receptor alpha 1 (IL-13Rα1), biotinylated ectodomain (human) (UniProt P78552); test: SPR, kinetic fit
# [2] = target: human interleukin 13 receptor alpha 1 (IL-13Rα1), biotinylated ectodomain (human) (UniProt P78552); test: SPR (Biacore T100), biotinylated receptor on SA chip, 1:1 kinetic fit
# [3] = target: human interleukin 13 receptor alpha 2 (IL-13Rα2), biotinylated (human) (UniProt Q14627); test: flow cytometry, PE-labelled mouse IgG1, live U87 cells
# [4] = target: human interleukin 13 receptor alpha 2 (IL-13Rα2), biotinylated (human) (UniProt Q14627); test: flow cytometry, PE-labelled mouse IgG1, live SKOV3 cells
# [5] = target: T1, human interleukin 13 receptor alpha 2 …; test: SPR (Biacore T100), biotinylated receptor on SA chip, equilibrium KD
# Method: (§1) Surface Plasmon Resonance. SPR experiments were conducted on a Biacore T100 instrument. Experiments used a Biacore SA sensor chip (GE Healthcare). Biotinylated IL-13Rα1 and IL-13Rα2 receptors were captured at a low density (100-200 RU) and kinetic runs were conducted at 40 μL/min. An unrelated biotinylated protein was immobilized as a reference surface for the SA sensor chip with matching RU to the experimental surface. All data was analyzed using the Biacore T100 evaluation software version 2.0 with a 1:1 Langmuir binding model. Serial dilutions of unbiotinylated IL-13 variants in the running buffer [1×HBS-P (GE Healthcare)+0.5% BSA] were flowed over the chip and IL-13Rα1/IL-13Rα2 were regenerated by using one 60 second injections of 7 mM glycine (pH 3.0).
# [6] = target: T1, human interleukin 13 receptor alpha 2 …; test: SPR (Biacore T100), biotinylated receptor on SA chip, 1:1 kinetic fit
# Method: as §1
# [7] = target: human interleukin 13 receptor alpha 1 (IL-13Rα1), biotinylated ectodomain (human) (UniProt P78552); test: SPR (Biacore T100), biotinylated receptor on SA chip, equilibrium KD
# [8] = target: T1, human interleukin 13 receptor alpha 2 …; test: SPR, kinetic fit
# Method: as §1
Molecule,Kd [2] [nM],koff [2] [s⁻¹],kon [2] [M⁻¹ s⁻¹],Kd [6] [nM],koff [6] [s⁻¹],kon [6] [M⁻¹ s⁻¹],Kd [7] [nM],other results
wild-type human IL-13 (from UniProt P35225 34-146) (ligand),4.38,0.022,5.21e+06,,,,,Kd [1]: 4.38 nM; koff [1]: 0.022 s⁻¹; kon [1]: 5.21e+06 M⁻¹ s⁻¹
Isotype Control (antibody),,,,,,,,% of cells in the PE gate [3]: 0.035%; % of cells in the PE gate [4]: 0.042%
B1,18,0.024,1.36e+06,,,,,Kd [5]: 108 nM
B2,,,,0.393,0.000764,1.94e+06,36000,
B3,,,,0.003,5.37e-05,1.77e+07,4100,
B4,,,,0.0001,9.18e-07,6.41e+06,1600,
B5,1.18,0.0034,2.9e+06,0.218,0.0041,1.8e+07,,
B6,,,,0.272,0.00057,2.1e+06,35000,
B7,0.275,0.0017,6.3e+06,1.5,0.01,7.8e+06,,
B8,0.084,0.0013,1.64e+07,0.391,0.006,1.62e+07,,
B9,1.9,0.0033,1.77e+06,0.267,0.0028,1.07e+07,,
B10,2.06,0.0033,1.64e+06,0.263,0.0026,1.01e+07,,
B11,,,,5,0.0061,1.19e+06,264,
B12,2.94,0.0082,2.8e+06,,,,,Kd [5]: 50 nM
B13,,,,0.379,0.002,6e+06,16000,
B14,,,,0.259,0.000529,2.03e+06,31000,
B15,,,,,,,,Kd [1]: 0.084 nM; koff [1]: 0.0013 s⁻¹; kon [1]: 1.64e+07 M⁻¹ s⁻¹; Kd [8]: 0.391 nM; koff [8]: 0.006 s⁻¹; kon [8]: 1.62e+07 M⁻¹ s⁻¹
B16,5.9,0.0082,1.4e+06,,,,,Kd [5]: 53 nM
B17,,,,0.053,0.000404,7.61e+06,15000,
B18,,,,0.025,0.00015,6.6e+06,4000,
